Experimental data taken from US20250290928A1, “METHOD, KIT AND DEVICE FOR DETECTING EXTRACELLULAR VESICLES” (priority 2022, published 2025).
Where “and” joins values, the source holds several entries; their conditions need not be identical. Equal values may be shown once. No end group written: not given here. *: point of attachment. 5FAM = O=C1OC2(c3ccc(O)cc3Oc3cc(O)ccc32)c2ccc(C(=O)*)cc21; TQ2 = quencher; TQ3 = quencher

Legend:
[1] = target: T1, MMP14 in the MDA-MB-231-derived extracellular vesicles (Homo sapiens, UniProt P50281); test: Digital detection through MMP14 activity of MDA-MB-231-derived extracellular vesicles captured on anti-CD9/CD63/CD81 antibody-immobilized particles; type: biochemical; conditions: for Expected value λ / Number of positives / Positive ratio: 5 h; for Expected value λ (MMP14) / Number of positives (MMP14): Example 33, 30° C., 4 h
T1 construct: in terms of intact MMP14 with a molecular weight of 70 kDa
Procedure: (§1) The concentration of the solution is 10 μg/mL.
For detection of MMP14 activity, 1 mM Custom #2 was diluted with the buffer (4) to prepare a MMP14 detection solution containing 10 μM Custom #2.
The number of the particles was increased 4-fold, and a reaction was allowed to proceed. However, the number and concentration of the particles used to fill the wells are finally the same as those in other Examples.
The concentration of the solution is 10 μg/mL. The solution was subjected to 3-fold serial dilution to prepare standard samples with seven concentrations.
For detection of MMP14 activity, 1 mM Custom #2 and a 100 µM resorufin β-D-galactopyranoside solution were diluted with the buffer (4) to prepare a MMP14 and CD9/CD63/CD81 cocktail detection solution (1) containing 10 μM Custom #2 and 5 μM resorufin β-D-galactopyranoside. In addition, the solution was diluted 2-fold with the buffer (4) to prepare a detection solution (2). Nonfluorescent resorufin β-D-galactopyranoside is degraded by β-galactosidase to produce fluorescent resorufin. In this case, the maximum wavelengths of excitation and fluorescence of resorufin are 570 nm and 585 nm, respectively.
In addition, an antibody-immobilized particle solution was prepared and stored at 4° C. until use, in the same manner as in Example 28 except that Magnosphere MS300/Carboxyl (manufactured by JSR Corporation) (hereinafter abbreviated as “MS300C”) was used as magnetic particles.
For detection of MMP14 activity, 1 mM Custom #2 was diluted with the buffer (4) to prepare a MMP14 detection solution containing 5 μM Custom #2. In addition, 1 mM Custom #2T was diluted with the buffer (4) to prepare a MMP14 detection solution containing 2.5 μM Custom #2T.
An antibody-immobilized particle solution was prepared and stored at 4° C. until use, in the same manner as in Example 28 except that: MS300C was used as magnetic particles; and blocking treatment was performed at 4° C. or room temperature through use of Blockmaster CE210 or CE510 (manufactured by Medical & Biological Laboratories Co., Ltd.) instead of Bead Blocking Buffer (manufactured by Quanterix Corporation).
For detection of MMP14 activity, 1 mM Custom #2 and 1 mM Custom #2T were diluted with the buffer (4) to prepare a MMP14 detection solution containing 5 μM Custom #2 and 2.5 μM Custom #2T serving as the reporter molecules in the same system. […]

[2] = target: T2, MMP14 in the A549-derived extracellular vesicles (Homo sapiens, UniProt P50281); test: Evaluation of MMP14 activity of A549-derived extracellular vesicles with 96-well plate; type: biochemical; conditions: reporter 5 μM, 37° C.
T2 construct: host or cells: A549 (purified exosomes)
Procedure: The MMP14 activity was evaluated with a 96-well plate (manufactured by Thermo Fisher Scientific Inc., model number: 137101). A fluorescence intensity was measured with a fluorescence plate reader (Synergy MX, manufactured by BioTek Instruments, Inc.) at […] every 5 min for 1 hour. For measurement wavelengths, an excitation wavelength of 485±20 nm and a fluorescence wavelength of 528±20 nm were used.
With regard to the COLO201-derived extracellular vesicles, the concentration of the solution was set to x1/10, and 3-fold serial dilution was performed to prepare standard samples with three concentrations.
50 μL of the MMP14 detection solution was added to 50 μL of each of the samples, a reaction was performed at 37° C., and MMP14 activity was evaluated.
The concentration of the solution is 20 μg/mL. […] The concentration of the solution was set to x1, and 10-fold serial dilution was performed to prepare standard samples with five concentrations.
as §1
Evaluation was performed in the same manner as in Example 1 except that the reaction temperature was set to 23° C. ΔRFU was calculated by subtracting the measured value of the sample for BG measurement from the measured value of each of the samples.

[3] = Particle MS300C, MB231 Absent, 24 hours of reaction
[4] = Particle MS300C, MB231 Present, 24 hours of reaction
[5] = Particle Simoa, MB231 Absent, 24 hours of reaction
[6] = Particle Simoa, MB231 Present, 24 hours of reaction
[7] = Example 28, 37° C., EV 0 (BG, free of extracellular vesicles)
[8] = Example 28, 37° C., EV 1 a.u. (sample 10 μg/mL)
[9] = Example 31, 4-fold number of particles, 37° C., EV 1 a.u., single image
[10] = Example 31, 37° C., EV 1 a.u., sum of the two images

“TAMRA-GGPLGLAGGK(TQ3) ({TAMRA}-GGPLGLAGGK(TQ3)) [Custom #2T]” was tested, and the Extracellular vesicle concentration [1, 3] was 0.01 ×10^5/μg of protein, the “Particle Expected value λ” value [1, 3] was 0.002 and the Extracellular vesicle concentration [1, 4] was 1.4687 ×10^5/μg of protein. For the same substance, the “Particle Expected value λ” value [1, 4] was 0.2937, the Extracellular vesicle concentration [1, 5] was 0.0098 ×10^5/μg of protein and the “Particle Expected value λ” value [1, 5] was 0.00196. The Extracellular vesicle concentration [1, 6] was 0.3874 ×10^5/μg of protein and the “Particle Expected value λ” value [1, 6] was 0.07748.

For “[5-FAM]GRIGFLRTAK(TQ2)[OH] (5FAM-GRIGFLRTAK(TQ2)-OH) [Custom #1]”, the “extracellular vesicle concentration at which MMP14 activity was able to be detected with a 96-well plate” value ([2]; Example 21, buffer (4)) was at least 10 µg/mL.

“[5-FAM]GGPLGLAGGK(TQ2)[OH] (5FAM-GGPLGLAGGK(TQ2)-OH) [Custom #2]” was tested, and the Extracellular vesicle concentration ([1]; Example 28, 1 μg of protein, 5.0×10^5 particles) was 8.0×10^4 extracellular vesicles/μg of protein, the “Expected value λ” value [1, 7] was 0.000493 and the Number of positives [1, 7] was 1. For the same substance, the Positive ratio [1, 7] was 0.000493, the “Expected value λ” value [1, 8] was 0.1599 and the Number of positives [1, 8] was 338. For the same substance, the Positive ratio [1, 8] was 0.1478, the “expected value Δλ per particle (value obtained by subtracting BG)” value ([1]; Example 28, 5 h) was 0.1594 and the Extracellular vesicle concentration ([1]; Example 31, 0.5 μg of protein, 2.0×10^6 particles) was 1.8×10^5 extracellular vesicles/μg of protein. For the same substance, the “Expected value λ” value [1, 9] was 0.04458 and 0.04511, the Number of positives [1, 9] was 402 and 410 and the Positive ratio [1, 9] was 0.0436 and 0.04411. For the same substance, the “Expected value λ” value [1, 10] was 0.04484, the Number of positives [1, 10] was 812 and the Positive ratio [1, 10] was 0.04386. For the same substance, the “expected value Δλ per particle (value obtained by subtracting BG)” value ([1]; Example 31, 5 h, sum of the two images) was 0.04435, the “Expected value λ (MMP14)” value ([1]; EV 0 (BG)) was 0.00428 and the “Number of positives (MMP14)” value ([1]; EV 0 (BG)) was 9. For the same substance, the “Expected value λ (MMP14)” value ([1]; EV X1 (sample 10 μg/mL)) was 0.139, the “Number of positives (MMP14)” value ([1]; EV X1 (sample 10 μg/mL)) was 298 and the “Expected value λ (MMP14)” value ([1]; EV X1/3) was 0.0829. For the same substance, the “Number of positives (MMP14)” value ([1]; EV X1/3) was 218, the “Expected value λ (MMP14)” value ([1]; EV X1/9) was 0.0569 and the “Number of positives (MMP14)” value ([1]; EV X1/9) was 162. The “Expected value λ (MMP14)” value ([1]; EV X1/27) was 0.0315, the “Number of positives (MMP14)” value ([1]; EV X1/27) was 78 and the “Expected value λ (MMP14)” value ([1]; EV X1/81) was 0.0118. For the same substance, the “Number of positives (MMP14)” value ([1]; EV X1/81) was 19, the “Expected value λ (MMP14)” value ([1]; EV X1/243) was 0.0108 and the “Number of positives (MMP14)” value ([1]; EV X1/243) was 20. For the same substance, the “Expected value λ (MMP14)” value ([1]; EV X1/729) was 0.0120, the “Number of positives (MMP14)” value ([1]; EV X1/729) was 22 and the “extracellular vesicles detected with MMP14 present in wells (particles) containing extracellular vesicles detected with at least any one of CD9, CD63, and CD81” value ([1]; Example 33, concentration [a.u.] of x1, multiplex with resorufin β-D-galactopyranoside) was 99.7%. For the same substance, the Extracellular vesicle concentration [1, 3] was 0.0113 ×10^5/μg of protein, the “Particle Expected value λ” value [1, 3] was 0.00226 and the Extracellular vesicle concentration [1, 4] was 1.4495 ×10^5/μg of protein. The “Particle Expected value λ” value [1, 4] was 0.2899, the Extracellular vesicle concentration [1, 5] was 0.0061 ×10^5/μg of protein and the “Particle Expected value λ” value [1, 5] was 0.00122. For the same substance, the Extracellular vesicle concentration [1, 6] was 1.5232 ×10^5/μg of protein, the “Particle Expected value λ” value [1, 6] was 0.3046 and the “fluorescence intensity at the same extracellular vesicle concentration” value ([2]; Example 10, buffer (3)) was “higher than the fluorescence intensity from Custom #1”.
